{
  "source": "paper PMC3950343",
  "about": "(Genes & Development, 2014)",
  "proteins": {"B1": {"name": "Rad50-HK^WT (mouse Rad50 hook domain fragment, amino acids 591-773) (domain or fragment, UniProt P70388 591-773, looked up)", "chain": "RDRLAKLNKELASAEQNKNHINNELKKKEEQLSSYEDKLFDVCGSQDLESDLGRLKEEIEKSSKQRAMLAGATAVYSQFITQLTDENQSCCPVCQRVFQTEAELQEVISDLQSKLRLAPDKLKSTESELKKKERRRDEMLGLVPVRQSIIDLKEKEIPELRNRLQSVNRDIQRLKNDIEEQET"}},
  "target": "the molecule itself",
  "assay": "SEC-MALS",
  "data": [
    {"protein": "B1", "values": [
      {"measurement": "stoichiometry N", "value": 2}
    ]}
  ]
}
